Measurements published in US20110263454A1, “Methods of Identifying Functional Characteristics of Promoters, Transcription Modifying Proteins and Transcription Modulating Agents” (Salk Institute for Biological Studies, priority 2008, published 2011).

B1: TR2: Testicular Orphan Nuclear Receptor 2 (NR2C1), cDNA driver (protein, UniProt P13056 1-603, looked up)
Nuclear receptor subfamily 2 …: MATIEEIAHQIIEQQMGEIVTEQQTGQKIQIVTALDHNTQGKQFILTNHDGSTPSKVILARQDSTPGKVFLTTPDAAGVNQLFFTTPDLSAQHLQLLTDNSPDQGPNKVFDLCVVCGDKASGRHYGAVTCEGCKGFFKRSIRKNLVYSCRGSKDCIINKHHRNRCQYCRLQRCIAFGMKQDSVQCERKPIEVSREKSSNCAASTEKIYIRKDLRSPLTATPTFVTDSESTRSTGLLDSGMFMNIHPSGVKTESAVLMTSDKAESCQGDLSTLANVVTSLANLGKTKDLSQNSNEMSMIESLSNDDTSLCEFQEMQTNGDVSRAFDTLAKALNPGESTACQSSVAGMEGSVHLITGDSSINYTEKEGPLLSDSHVAFRLTMPSPMPEYLNVHYIGESASRLLFLSMHWALSIPSFQALGQENSISLVKAYWNELFTLGLAQCWQVMNVATILATFVNCLHNSLQQDKMSTERRKLLMEHIFKLQEFCNSMVKLCIDGYEYAYLKAIVLFSPDHPSLENMEQIEKFQEKAYVEFQDYITKTYPDDTYRLSRLLLRLPALRLMNATITEELFFKGLIGNIRIDSVIPHILKMEPADYNSQIIGHSI
B2: ERR3: Estrogen Related Receptor γ (NR3B3, ERRg), cDNA driver (protein, UniProt P62508 1-458, looked up)
Estrogen-related receptor …: MDSVELCLPESFSLHYEEELLCRMSNKDRHIDSSCSSFIKTEPSSPASLTDSVNHHSPGGSSDASGSYSSTMNGHQNGLDSPPLYPSAPILGGSGPVRKLYDDCSSTIVEDPQTKCEYMLNSMPKRLCLVCGDIASGYHYGVASCEACKAFFKRTIQGNIEYSCPATNECEITKRRRKSCQACRFMKCLKVGMLKEGVRLDRVRGGRQKYKRRIDAENSPYLNPQLVQPAKKPYNKIVSHLLVAEPEKIYAMPDPTVPDSDIKALTTLCDLADRELVVIIGWAKHIPGFSTLSLADQMSLLQSAWMEILILGVVYRSLSFEDELVYADDYIMDEDQSKLAGLLDLNNAILQLVKKYKSMKLEKEEFVTLKAIALANSDSMHIEDVEAVQKLQDVLHEALQDYEAGQHMEDPRRAGKMLMTLPLLRQTSTKAVQHFYNIKLEGKVPMHKLFLEMLEAKV
B3: HNF4g: Hepatocyte Nuclear Factor γ (NR2A2), cDNA driver (protein, UniProt Q14541 1-408, looked up)
Hepatocyte nuclear factor …: MNTTDNGVNCLCAICGDRATGKHYGASSCDGCKGFFRRSIRKSHVYSCRFSRQCVVDKDKRNQCRYCRLRKCFRAGMKKEAVQNERDRISTRRSTFDGSNIPSINTLAQAEVRSRQISVSSPGSSTDINVKKIASIGDVCESMKQQLLVLVEWAKYIPAFCELPLDDQVALLRAHAGEHLLLGATKRSMMYKDILLLGNNYVIHRNSCEVEISRVANRVLDELVRPFQEIQIDDNEYACLKAIVFFDPDAKGLSDPVKIKNMRFQVQIGLEDYINDRQYDSRGRFGELLLLLPTLQSITWQMIEQIQFVKLFGMVKIDNLLQEMLLGGASNDGSHLHHPMHPHLSQDPLTGQTILLGPMSTLVHADQISTPETPLPSPPQGSGQEQYKIAANQASVISHQHLSKQKQL
B4: CTF1: COUP-TF1 (NR2F1), cDNA driver (protein, UniProt P10589 1-423, looked up)
COUP transcription factor 1: MAMVVSSWRDPQDDVAGGNPGGPNPAAQAARGGGGGAGEQQQQAGSGAPHTPQTPGQPGAPATPGTAGDKGQGPPGSGQSQQHIECVVCGDKSSGKHYGQFTCEGCKSFFKRSVRRNLTYTCRANRNCPIDQHHRNQCQYCRLKKCLKVGMRREAVQRGRMPPTQPNPGQYALTNGDPLNGHCYLSGYISLLLRAEPYPTSRYGSQCMQPNNIMGIENICELAARLLFSAVEWARNIPFFPDLQITDQVSLLRLTWSELFVLNAAQCSMPLHVAPLLAAAGLHASPMSADRVVAFMDHIRIFQEQVEKLKALHVDSAEYSCLKAIVLFTSDACGLSDAAHIESLQEKSQCALEEYVRSQYPNQPSRFGKLLLRLPSLRTVSSSVIEQLFFVRLVGKTPIETLIRDMLLSGSSFNWPYMSIQCS
B5: ERR2: Estrogen Related Receptor β (NR3B2, ERRb), cDNA driver (protein, UniProt O95718 1-433, looked up)
Steroid hormone receptor ERR2: MSSDDRHLGSSCGSFIKTEPSSPSSGIDALSHHSPSGSSDASGGFGLALGTHANGLDSPPMFAGAGLGGTPCRKSYEDCASGIMEDSAIKCEYMLNAIPKRLCLVCGDIASGYHYGVASCEACKAFFKRTIQGNIEYSCPATNECEITKRRRKSCQACRFMKCLKVGMLKEGVRLDRVRGGRQKYKRRLDSESSPYLSLQISPPAKKPLTKIVSYLLVAEPDKLYAMPPPGMPEGDIKALTTLCDLADRELVVIIGWAKHIPGFSSLSLGDQMSLLQSAWMEILILGIVYRSLPYDDKLVYAEDYIMDEEHSRLAGLLELYRAILQLVRRYKKLKVEKEEFVTLKALALANSDSMYIEDLEAVQKLQDLLHEALQDYELSQRHEEPWRTGKLLLTLPLLRQTAAKAVQHFYSVKLQGKVPMHKLFLEMLEAKV
B6: Erb: Estrogen Receptor β (NR3A2, ERb), cDNA driver (protein, UniProt Q92731 1-530, looked up)
Estrogen receptor beta: MDIKNSPSSLNSPSSYNCSQSILPLEHGSIYIPSSYVDSHHEYPAMTFYSPAVMNYSIPSNVTNLEGGPGRQTTSPNVLWPTPGHLSPLVVHRQLSHLYAEPQKSPWCEARSLEHTLPVNRETLKRKVSGNRCASPVTGPGSKRDAHFCAVCSDYASGYHYGVWSCEGCKAFFKRSIQGHNDYICPATNQCTIDKNRRKSCQACRLRKCYEVGMVKCGSRRERCGYRLVRRQRSADEQLHCAGKAKRSGGHAPRVRELLLDALSPEQLVLTLLEAEPPHVLISRPSAPFTEASMMMSLTKLADKELVHMISWAKKIPGFVELSLFDQVRLLESCWMEVLMMGLMWRSIDHPGKLIFAPDLVLDRDEGKCVEGILEIFDMLLATTSRFRELKLQHKEYLCVKAMILLNSSMYPLVTATQDADSSRKLAHLLNAVTDALVWVIAKSGISSQQQSMRLANLLMLLSHVRHASNKGMEHLLNMKCKNVVPVYDLLLEMLNAHVLRGCKSSITGSECSPAEDSKSKEGSQNPQSQ
B7: TR4: Testicular Orphan Nuclear Receptor 4 (NR2C2), cDNA driver (protein, UniProt P49116 1-596, looked up)
Nuclear receptor subfamily 2 …: MTSPSPRIQIISTDSAVASPQRIQIVTDQQTGQKIQIVTAVDASGSPKQQFILTSPDGAGTGKVILASPETSSAKQLIFTTSDNLVPGRIQIVTDSASVERLLGKTDVQRPQVVEYCVVCGDKASGRHYGAVSCEGCKGFFKRSVRKNLTYSCRSNQDCIINKHHRNRCQFCRLKKCLEMGMKMESVQSERKPFDVQREKPSNCAASTEKIYIRKDLRSPLIATPTFVADKDGARQTGLLDPGMLVNIQQPLIREDGTVLLATDSKAETSQGALGTLANVVTSLANLSESLNNGDTSEIQPEDQSASEITRAFDTLAKALNTTDSSSSPSLADGIDTSGGGSIHVISRDQSTPIIEVEGPLLSDTHVTFKLTMPSPMPEYLNVHYICESASRLLFLSMHWARSIPAFQALGQDCNTSLVRACWNELFTLGLAQCAQVMSLSTILAAIVNHLQNSIQEDKLSGDRIKQVMEHIWKLQEFCNSMAKLDIDGYEYAYLKAIVLFSPDHPGLTSTSQIEKFQEKAQMELQDYVQKTYSEDTYRLARILVRLPALRLMSSNITEELFFTGLIGNVSIDSIIPYILKMETAEYNGQITGASL

Key:
Format in all cases: cell-based, mouse
[1] = tested on: mDio1 promoter; test: NHR-promoter luciferase screen, mDio1 promoter; details: for Luc. act., normalized to lacZ / Normalized Luc. act., normalized to control: Dio1, HR component without or with its ligand; for mDio1 promoter reporter activity: transcription factor +/- ligand, control = 1.00
Method in brief: (§1)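 CV-1 cells were co-transfected with 50 ng NHR (homodimer or NHR/RXR heterodimer), 100 ng promoter-luciferase construct and 50 ng LacZ. Luciferase was normalized to LacZ and to a no-NHR/no-ligand control.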

[2] = tested on: mGhrelin promoter; test: NHR-promoter luciferase screen, mGhrelin promoter; details: for Luc. act., normalized to lacZ / Normalized Luc. act., normalized to control: Table 8, mGhrelin; for Results of assays of transcription factor (+/- ligand) with mGhrelin: Table 6d, luciferase activity relative to control (control = 1.00); for luciferase/LacZ, mGhrelin (selected results): mGhrelin promoter-luciferase, NHR +/- ligand, control = 1.0
Method in brief: as §1

[3] = tested on: SREBP1c promoter; test: NHR-promoter luciferase screen, SREBP1c promoter; details: for Luc. act., normalized to lacZ / Normalized Luc. act., normalized to control: SREBP1c promoter, HR component without or with ligand; for mSREBP1-c promoter reporter activity: transcription factor +/- ligand, control = 1.00
Method in brief: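 CV-1 cells co-transfected with 50 ng NHR (homodimer or NHR/RXR heterodimer), 100 ng promoter-luciferase and 50 ng LacZ. Luciferase read at 48 h, normalised to LacZ and to a no-NHR/no-ligand control.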

Molecule | Luc. act., normalized to lacZ [1] | Normalized Luc. act., normalized to control [1] | mDio1 promoter reporter activity [1] | Luc. act., normalized to lacZ [2] | Normalized Luc. act., normalized to control [2] | Results of assays of transcription factor (+/- ligand) with mGhrelin [2] | Luc. act., normalized to lacZ [3] | Normalized Luc. act., normalized to control [3] | mSREBP1-c promoter reporter activity [3] | luciferase/LacZ, mGhrelin (selected results) [2]
B1 | 14.8 | 3.3 | 3.32 | 63.2 | 1.2 | 1.21 | 102.9 | 0.3 | 0.32 | –
B2 | 5.9 | 1.3 | 1.32 | 145.9 | 2.8 | 2.79 | 406.7 | 1.3 | 1.26 | –
B3 | 15.6 | 3.5 | 3.49 | 58.1 | 1.1 | 1.11 | 296.9 | 0.9 | 0.92 | –
B4 | 17.3 | 3.9 | 3.89 | 113.8 | 2.2 | 2.18 | 205.9 | 0.6 | 0.64 | –
B5 | 13.6 | 3.1 | 3.05 | 365.8 | 7.0 | 7.00 | 347.9 | 1.1 | 1.08 | 7.0
B6 | 9.3 | 2.1 | 2.09 | 47.5 | 0.9 | 0.91 | 249.2 | 0.8 | 0.77 | –
B7 | 56.0 | 12.6 | 12.55 | 273.5 | 5.2 | 5.23 | 477.6 | 1.5 | 1.48 | 5.2
